Experimental data as given in US7794719 (dated 2010).
Read-outs that look alike come from different tables or passages of the source.

Key:
Test in all cases: SPR
Aβ1-40 fibers [1] = target: Aβ1-40 fibers (human)
Aβ1-42 fibers [2] = target: Aβ1-42 fibers (human)
Aβ1-40 fibers [3] = target: Aβ1-40 fibers (human); remark: listed apart in the source
Aβ1-42 fibers [4] = target: Aβ1-42 fibers (human); remark: listed apart in the source

Binder | Kd (Aβ1-40 fibers [1]) [nM] | Kd (Aβ1-42 fibers [2]) [nM] | Kd (Aβ1-40 fibers [3]) [nM] | Kd (Aβ1-42 fibers [4]) [nM]
MS-R 8.2L1 Fab (antibody, V domains shown) VH: not shown VL: DIVLTQSPATLSLSPGERATLSCRASQRVSGRYLAWYQQKPGQAPRLLIYGASSRATGVPARFSGSGSGTDFTLTISSLEPEDFATYYCQQLSSYPPTFGQGTKVEIKR | 4.8 | 3.7 | – | –
MS-R 7 Fab (antibody, V domains shown) VH: not shown VL: DIVLTQSPATLSLSPGERATLSCRASQSVSSSYLAWYQQKPGQAPRLLIYGASSRATGVPARFSGSGSGTDFTLTISSLEPEDFATYYCFQLYSDPFTFGQGTKVEIKR | 1100 | 1710 | – | –
MS-R 7.2L1 Fab (antibody, V domains shown) VH: not shown VL: DIVLTQSPATLSLSPGERATLSCRASQYVDRTYLAWYQQKPGQAPRLLIYGASSRATGVPARFSGSGSGTDFTLTISSLEPEDFATYYCQQIYSFPHTFGQGTKVEIKR | 13.3 | 12.7 | – | –
MS-R 3.4L7 Fab (antibody, V domains shown) VH: not shown VL: DIVLTQSPATLSLSPGERATLSCRASQRLGRLYLAWYQQKPGQAPRLLIYGASSRATGVPARFSGSGSGTDFTLTISSLEPEDFATYYCQQTYDYPPTFGQGTKVEIKR | 9.3 | 9.3 | – | –
MS-R 7.9 Fab (antibody, V domains shown) VH: not shown VL: DIVLTQSPATLSLSPGERATLSCRASQSVSSSYLAWYQQKPGQAPRLLIYGASSRATGVPARFSGSGSGTDFTLTISSLEPEDFATYYCLQIYNMPITFGQGTKVEIKR | 31 | 93 | – | –
MS-R 3.6L1 Fab (antibody, V domains shown) VH: not shown VL: DIVLTQSPATLSLSPGERATLSCRASQFIQRFYLAWYQQKPGQAPRLLIYGASSRATGVPARFSGSGSGTDFTLTISSLEPEDFAVYYCQQTYNYPPTFGQGTKVEIKR | 15.6 | 11.1 | – | –
MS-R 3.4L9 Fab (antibody, V domains shown) VH: not shown VL: DIVLTQSPATLSLSPGERATLSCRASRRIHVYYLAWYQQKPGQAPRLLIYGASSRATGVPARFSGSGSGTDFTLTISSLEPEDFATYYCQQTYDYPPTFGQGTKVEIKR | 16.3 | 9.1 | – | –
MS-R 3.6L2 Fab (antibody, V domains shown) VH: not shown VL: DIVLTQSPATLSLSPGERATLSCRASQFLSRYYLAWYQQKPGQAPRLLIYGASSRATGVPARFSGSGSGTDFTLTISSLEPEDFAVYYCQQTYNYPPTFGQGTKVEIKR | 13.7 | 13.1 | – | –
MS-R 7.11H1 x 7.2L1 Fab (antibody, V domains shown) VH: QLVESGGGLVQPGGSLRLSCAASGFTFSSYAMSWVRQAPGKGLEWVSGINAAGFRTYYADSVKGRFTISRDNSKNTLYLQMNSLRAEDTAVYYCARGKGNTHKPYGYVRYFDVWGQGTLVTVSS VL: DIVLTQSPATLSLSPGERATLSCRASQYVDRTYLAWYQQKPGQAPRLLIYGASSRATGVPARFSGSGSGTDFTLTISSLEPEDFATYYCQQIYSFPHTFGQGTKVEIKR | – | – | 1.75 | 1.39
MS-R 7.11H2 x 7.2L1(L1) Fab (antibody, V domains shown) VH: QLVESGGGLVQPGGSLRLSCAASGFTFSSYAMSWVRQAPGKGLEWVSAINANGYKKYYADSVKGRFTISRDNSKNTLYLQMNSLRAEDTAVYYCARGKGNTHKPYGYVRYFDVWGQGTLVTVSS VL: DIVLTQSPATLSLSPGERATLSCRASQYVDRTYLAWYQQKPGQAPRLLIYGASSRATGVPARFSGSGSGTDFTLTISSLEPEDFATYYCQQIYSFPHTFGQGTKVEIKR | – | – | 1 | 0.6
MS-R 7.2H2 x 7.2L1 Fab (antibody, V domains shown) VH: QLVESGGGLVQPGGSLRLSCAASGFTFSSYAMSWVRQAPGKGLEWVSAINGTGMKKYYADSVKGRFTISRDNSKNTLYLQMNSLRAEDTAVYYCARGKGNTHKPYGYVRYFDVWGQGTLVTVSS VL: DIVLTQSPATLSLSPGERATLSCRASQYVDRTYLAWYQQKPGQAPRLLIYGASSRATGVPARFSGSGSGTDFTLTISSLEPEDFATYYCQQIYSFPHTFGQGTKVEIKR | – | – | 1.29 | 1.43
MS-R 7.9H7 Fab (antibody, V domains shown) VH: QVQLVESGGGLVQPGGSLRLSCAASGFTFSSYAMSWVRQAPGKGLEWVSAINASGTRTYYADSVKGRFTISRDNSKNTLYLQMNSLRAEDTAVYYCARGKGNTHKPYGYVRYFDVWGQGTLVTVSS VL: DIVLTQSPATLSLSPGERATLSCRASQSVSSSYLAWYQQKPGQAPRLLIYGASSRATGVPARFSGSGSGTDFTLTISSLEPEDFATYYCLQIYNMPITFGQGTKVEIKR | 1 | 0.9 | – | –
MS-R 3.4H3 x 3.4L7 Fab (antibody, V domains shown) VH: QLVESGGGLVQPGGSLRLSCAASGFTFSSYAMSWVRQAPGKGLEWVSVISQTGRKIYYADSVKGRFTISRDNSKNTLYLQMNSLRAEDTAVYYCARLTHYARYYRYFDVWGQGTLVTVSS VL: DIVLTQSPATLSLSPGERATLSCRASQRLGRLYLAWYQQKPGQAPRLLIYGASSRATGVPARFSGSGSGTDFTLTISSLEPEDFATYYCQQTYDYPPTFGQGTKVEIKR | – | – | 0.92 | 0.92
MS-R 7.9H2 x 7.12L2(L1+2) Fab (antibody, V domains shown) VH: QLVESGGGLVQPGGSLRLSCAASGFTFSSYAMSWVRQAPGKGLEWVSAINADGNRKYYADSVKGRFTISRDNSKNTLYLQMNSLRAEDTAVYYCARGKGNTHKPYGYVRYFDVWGQGTLVTVSS VL: DIVLTQSPATLSLSPGERATLSCRASQRFFYKYLAWYQQKPGQAPRLLISGSSNRATGVPARFSGSGSGTDFTLTISSLEPEDFAVYYCLQLYNIPNTFGQGTKVEIKR | – | – | 0.4 | 0.4
MS-R 7.11H1 x 7.11L1 Fab (antibody, V domains shown) VH: QLVESGGGLVQPGGSLRLSCAASGFTFSSYAMSWVRQAPGKGLEWVSGINAAGFRTYYADSVKGRFTISRDNSKNTLYLQMNSLRAEDTAVYYCARGKGNTHKPYGYVRYFDVWGQGTLVTVSS VL: DIVLTQSPATLSLSPGERATLSCRASQRILRIYLAWYQQKPGQAPRLLIYGASSRATGVPARFSGSGSGTDFTLTISSLEPEDFATYYCQQVYSPPHTFGQGTKVEIKR | – | – | 0.41 | 0.47
MS-R 7.11L1 Fab (antibody, V domains shown) VH: not shown VL: DIVLTQSPATLSLSPGERATLSCRASQRILRIYLAWYQQKPGQAPRLLIYGASSRATGVPARFSGSGSGTDFTLTISSLEPEDFATYYCQQVYSPPHTFGQGTKVEIKR | 1.1 | 1.2 | – | –
MS-R 7.4H2 x 7.2L1 Fab (antibody, V domains shown) VH: QLVESGGGLVQPGGSLRLSCAASGFTFSSYAMSWVRQAPGKGLEWVSAINYNGARIYYADSVKGRFTISRDNSKNTLYLQMNSLRAEDTAVYYCARGKGNTHKPYGYVRYFDVWGQGTLVTVSS VL: DIVLTQSPATLSLSPGERATLSCRASQYVDRTYLAWYQQKPGQAPRLLIYGASSRATGVPARFSGSGSGTDFTLTISSLEPEDFATYYCQQIYSFPHTFGQGTKVEIKR | – | – | 1.4 | 1.4
MS-R 7.9H2 x 7.2L1(L1) Fab (antibody, V domains shown) VH: QLVESGGGLVQPGGSLRLSCAASGFTFSSYAMSWVRQAPGKGLEWVSAINADGNRKYYADSVKGRFTISRDNSKNTLYLQMNSLRAEDTAVYYCARGKGNTHKPYGYVRYFDVWGQGTLVTVSS VL: DIVLTQSPATLSLSPGERATLSCRASQYVDRTYLAWYQQKPGQAPRLLIYGASSRATGVPARFSGSGSGTDFTLTISSLEPEDFATYYCQQIYSFPHTFGQGTKVEIKR | – | – | 1.4 | 1.4
MS-R 8.1H1 x 8.2L1 Fab (antibody, V domains shown) VH: QLVESGGGLVQPGGSLRLSCAASGFTFSSYAMSWVRQAPGKGLEWVSAISRSGSNIYYADSVKGRFTISRDNSKNTLYLQMNSLRAEDTAVYYCARLLSRGYNGYYHKFDVWGQGTLVTVSS VL: DIVLTQSPATLSLSPGERATLSCRASQRVSGRYLAWYQQKPGQAPRLLIYGASSRATGVPARFSGSGSGTDFTLTISSLEPEDFATYYCQQLSSYPPTFGQGTKVEIKR | – | – | 1.3 | 1.6
MS-R 7.9H2 Fab (antibody, V domains shown) VH: QLVESGGGLVQPGGSLRLSCAASGFTFSSYAMSWVRQAPGKGLEWVSAINADGNRKYYADSVKGRFTISRDNSKNTLYLQMNSLRAEDTAVYYCARGKGNTHKPYGYVRYFDVWGQGTLVTVSS VL: DIVLTQSPATLSLSPGERATLSCRASQSVSSSYLAWYQQKPGQAPRLLIYGASSRATGVPARFSGSGSGTDFTLTISSLEPEDFATYYCLQIYNMPITFGQGTKVEIKR | 5 | 5.7 | – | –
MS-R 3.4H7 x 3.4L7 Fab (antibody, V domains shown) VH: QLVESGGGLVQPGGSLRLSCAASGFTFSSYAMSWVRQAPGKGLEWVSVISETGKNIYYADSVKGRFTISRDNSKNTLYLQMNSLRAEDTAVYYCARLTHYARYYRYFDVWGQGTLVTVSS VL: DIVLTQSPATLSLSPGERATLSCRASQRLGRLYLAWYQQKPGQAPRLLIYGASSRATGVPARFSGSGSGTDFTLTISSLEPEDFATYYCQQTYDYPPTFGQGTKVEIKR | – | – | 1.19 | 1.23
MS-R 3.4H7 x 3.4L9 Fab (antibody, V domains shown) VH: QLVESGGGLVQPGGSLRLSCAASGFTFSSYAMSWVRQAPGKGLEWVSVISETGKNIYYADSVKGRFTISRDNSKNTLYLQMNSLRAEDTAVYYCARLTHYARYYRYFDVWGQGTLVTVSS VL: DIVLTQSPATLSLSPGERATLSCRASRRIHVYYLAWYQQKPGQAPRLLIYGASSRATGVPARFSGSGSGTDFTLTISSLEPEDFATYYCQQTYDYPPTFGQGTKVEIKR | – | – | 2.66 | 3.51
MS-R 7.9H4 Fab (antibody, V domains shown) VH: QLVESGGGLVQPGGSLRLSCAASGFTFSSYAMSWVRQAPGKGLEWVSAINAVGMKKFYADSVKGRFTISRDNSKNTLYLQMNSLRAEDTAVYYCARGKGNTHKPYGYVRYFDVWGQGTLVTVSS VL: DIVLTQSPATLSLSPGERATLSCRASQSVSSSYLAWYQQKPGQAPRLLIYGASSRATGVPARFSGSGSGTDFTLTISSLEPEDFATYYCLQIYNMPITFGQGTKVEIKR | 4.8 | 4.2 | – | –
